Assay results from publication PMC8294330, “A cooperative PNPase-Hfq-RNA carrier complex facilitates bacterial riboregulation”.

T1: PNPase WT (Escherichia coli, UniProt P05055 1-711)
T1 sequence: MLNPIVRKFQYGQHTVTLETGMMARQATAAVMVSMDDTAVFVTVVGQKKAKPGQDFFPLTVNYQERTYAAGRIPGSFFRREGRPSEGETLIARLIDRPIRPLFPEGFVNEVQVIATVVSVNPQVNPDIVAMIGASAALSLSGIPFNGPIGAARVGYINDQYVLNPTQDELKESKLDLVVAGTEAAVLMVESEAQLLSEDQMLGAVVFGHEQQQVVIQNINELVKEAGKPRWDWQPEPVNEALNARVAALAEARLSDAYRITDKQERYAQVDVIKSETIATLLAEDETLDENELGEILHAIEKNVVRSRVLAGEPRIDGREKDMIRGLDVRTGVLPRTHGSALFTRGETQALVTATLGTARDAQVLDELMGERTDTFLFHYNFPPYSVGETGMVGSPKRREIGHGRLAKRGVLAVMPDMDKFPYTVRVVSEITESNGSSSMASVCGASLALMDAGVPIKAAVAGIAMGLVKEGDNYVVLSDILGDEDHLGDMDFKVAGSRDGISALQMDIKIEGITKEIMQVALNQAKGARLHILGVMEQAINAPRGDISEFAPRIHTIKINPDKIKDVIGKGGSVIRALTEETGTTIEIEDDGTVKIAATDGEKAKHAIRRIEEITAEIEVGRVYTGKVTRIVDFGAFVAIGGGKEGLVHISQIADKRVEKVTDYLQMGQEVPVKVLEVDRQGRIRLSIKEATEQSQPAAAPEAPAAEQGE


Assays:
PNPase WT;Hfq [1] = molecular target: T2, PNPase WT;Hfq (Escherichia coli;Escherichia coli, UniProt P05055;P0A6X3 1-711;1-102, |); test: cryo-EM; two stacked Hfq hexamers; EMSA: 0.4 uM RNA, PNPase trimer 1:1 and 3:1 over RNA, 20 mM Tris pH 7.5, 100 mM NaCl, 1 mM MgCl2, 1 mM DTT, 30 C 20 min; native PAA gel with 10% glycerol, Tris-glycine pH 8.5; details: protein: recombinant;recombinant; tags: ;; chain copies: 3;12; single strand
PNPase WT;Hfq [2] = molecular target: T2, PNPase WT;Hfq; test: cryo-EM; carrier complex; 50 RNA nt modelled; EMSA: 0.4 uM RNA, PNPase trimer 1:1 and 3:1 over RNA, 20 mM Tris pH 7.5, 100 mM NaCl, 1 mM MgCl2, 1 mM DTT, 30 C 20 min; native PAA gel with 10% glycerol, Tris-glycine pH 8.5; details: protein: recombinant;recombinant; tags: ;; chain copies: 3;6; single strand with hairpin
PNPase WT = molecular target: T1, PNPase WT; test: cryo-EM; phosphorolytic mode; 8 RNA nt modelled; EMSA: 0.4 uM RNA, PNPase trimer 1:1 and 3:1 over RNA, 20 mM Tris pH 7.5, 100 mM NaCl, 1 mM MgCl2, 1 mM DTT, 30 C 20 min; native PAA gel with 10% glycerol, Tris-glycine pH 8.5; details: protein: recombinant; chain copies: 3; single strand with hairpin

Binder | binding result (PNPase WT;Hfq [1]) | binding result (PNPase WT;Hfq [2]) | binding result (PNPase WT)
CyaR (structured_RNA) RNA: GCUGAAAAACAUAACCCAUAAAAUGCUAGCUGUACCAGGAACCACCUCCUUAGCCUGUGUAAUCUCCCUUACACGGGCUUAUUUUUU | binds | – | –
3'ETSleuZ (structured_RNA) RNA: GGGAAAGAUAAGAAUAAAAUCAAAGCAAUAAGCAGUGUCGUGAAACCACCUUCGGGUGGUUUUUUU | – | binds | binds
